± gives the uncertainty stated by the source.
B1: Zinc finger homeobox protein 3, residues 2643 to 2698; numbered along this chain, Q15911 (parent)
chain: RLRTTITPEQLEILYQKYLLDSNPTRKMLDHIAHEVGLKKRVVQVWFQNTRARERK

Variants of: B1
Assay: abundance fitness (aPCA) (normalised: wild type 0, dead -1); higher = more abundant; growth selection in yeast, the domain comes from the species named
Details: Homo sapiens

Point of comparison: I6T, abundance fitness -0.211 ± 0.081. Against it:
- I6V — higher, -0.022 ± 0.08
- I6S — lower, -0.648 ± 0.081
- I6A — within error, -0.298 ± 0.087
- I6M — higher, 0.068 ± 0.094
- I6Q — lower, -0.705 ± 0.12
- I6N — lower, -0.702 ± 0.091
- I6H — within error, -0.332 ± 0.09
- I6C — higher, -0.022 ± 0.1
- I6L — higher, 0.051 ± 0.072
- I6G — lower, -0.543 ± 0.11
- I6Y — higher, 0.035 ± 0.081
- I6R — lower, -0.868 ± 0.1
- I6P — within error, -0.182 ± 0.083
- I6K — lower, -0.392 ± 0.1
- Q10A — within error, -0.212 ± 0.086
- Q10M — lower, -0.411 ± 0.09
- Q10C — lower, -0.52 ± 0.086
- Q10Y — lower, -0.792 ± 0.084
- Q10H — within error, -0.356 ± 0.074
- Q10S — lower, -0.48 ± 0.069
- Q10V — within error, -0.321 ± 0.078
- Q10E — lower, -0.516 ± 0.15
- Q10G — lower, -0.854 ± 0.094
- Q10K — lower, -0.432 ± 0.1
- Q10I — within error, -0.27 ± 0.079
- Q10T — within error, -0.296 ± 0.076
- Q10N — lower, -0.385 ± 0.08
- Q10W — lower, -0.856 ± 0.12
- Q10L — lower, -0.646 ± 0.072
- Q10R — lower, -0.755 ± 0.083
- Q10P — lower, -0.717 ± 0.081
- Q10F — lower, -0.959 ± 0.095
- Q10D — higher, 0.224 ± 0.086
- L2Q — higher, 0.102 ± 0.21
- L2S — higher, 0.331 ± 0.1
- L2H — within error, -0.006 ± 0.2
- L2E — higher, 0.17 ± 0.15
- L2R — within error, -0.262 ± 0.1
- L2T — higher, 0.25 ± 0.12
- L2D — higher, 0.655 ± 0.14
- L2F — higher, 0.082 ± 0.16
- L2M — within error, -0.221 ± 0.17
- L2G — higher, 0.136 ± 0.083
- L2A — higher, -0.009 ± 0.12
- L2N — higher, 0.232 ± 0.21
- L2W — within error, -0.134 ± 0.13
- L2I — higher, 0.217 ± 0.13
- L2P — within error, -0.227 ± 0.16
- L2Y — higher, 0.222 ± 0.16
- T5S — within error, -0.25 ± 0.12
- T5N — within error, -0.233 ± 0.19
- T5F — within error, -0.358 ± 0.2
- T5R — lower, -0.498 ± 0.096
- T5D — higher, 0.075 ± 0.14
- T5I — within error, -0.165 ± 0.14
- T5H — lower, -0.784 ± 0.31
- T5E — higher, 0.445 ± 0.15
- T5K — lower, -0.593 ± 0.23
- T5P — higher, 0.176 ± 0.17
- T5M — higher, 0.286 ± 0.15
- T5V — within error, -0.172 ± 0.089
- T5C — within error, -0.107 ± 0.14
- T5Y — within error, -0.319 ± 0.24
- T5Q — higher, 0.17 ± 0.15
- T5W — within error, -0.192 ± 0.15
- T5A — higher, 0.132 ± 0.097
- T4F — within error, -0.378 ± 0.24
- T4D — higher, 0.154 ± 0.19
- T4W — lower, -0.423 ± 0.11
- T4Y — within error, -0.254 ± 0.18
- T4I — within error, 0.048 ± 0.21
- T4V — within error, -0.106 ± 0.092
- T4M — higher, 0.068 ± 0.14
- T4K — within error, -0.318 ± 0.16
- T4P — higher, 0.149 ± 0.13
- T4A — within error, -0.193 ± 0.1
- T4G — higher, -0.002 ± 0.08
- T4E — higher, 0.439 ± 0.14
- T4S — within error, -0.144 ± 0.13
- T4N — within error, -0.042 ± 0.2
- T4L — within error, -0.335 ± 0.11
- T4R — lower, -0.576 ± 0.095
- T4H — within error, -0.337 ± 0.17
- T4C — lower, -0.56 ± 0.19
- P8Q — within error, -0.401 ± 0.21
- P8N — within error, -0.06 ± 0.3
- P8M — higher, 0.57 ± 0.15
- P8S — within error, -0.09 ± 0.1
- P8V — higher, 0.544 ± 0.094
- P8I — higher, 0.993 ± 0.19
- P8Y — higher, 0.116 ± 0.14
- P8F — higher, 0.584 ± 0.2
- P8G — higher, 0.193 ± 0.079
- P8R — higher, 0.196 ± 0.089
- P8K — within error, -0.352 ± 0.23
- P8C — higher, 0.475 ± 0.15
- P8T — within error, -0.116 ± 0.16
- P8D — within error, -0.084 ± 0.14
- P8L — higher, 0.991 ± 0.1
- P8A — higher, 0.388 ± 0.095
- P8W — higher, 0.193 ± 0.12
- P8E — within error, -0.259 ± 0.14
- L11P — lower, -0.494 ± 0.14
- L11R — higher, 0.049 ± 0.074
- L11D — higher, 0.17 ± 0.11
- L11I — within error, -0.224 ± 0.19
- L11F — within error, -0.341 ± 0.14
- L11K — within error, -0.143 ± 0.12
- L11S — higher, 0.022 ± 0.09
- L11C — lower, -0.648 ± 0.14
- L11T — within error, -0.117 ± 0.14
- L11E — higher, 0.026 ± 0.11
- L11W — within error, -0.11 ± 0.097
- L11G — higher, -0.02 ± 0.072
- L11Y — within error, -0.024 ± 0.15
- L11N — higher, 0.305 ± 0.25
- L11Q — within error, -0.133 ± 0.11
- L11M — within error, -0.032 ± 0.12
- L11V — higher, -0.021 ± 0.076
- L11H — higher, 0.028 ± 0.13
- E9W — lower, -0.516 ± 0.11
- E9M — within error, -0.272 ± 0.1
- E9D — within error, -0.042 ± 0.092
- E9H — within error, -0.229 ± 0.082
- E9S — within error, -0.267 ± 0.071
- E9L — within error, -0.31 ± 0.069
- E9C — lower, -0.712 ± 0.091
- E9P — within error, -0.293 ± 0.082
- E9Q — within error, -0.038 ± 0.1
- E9T — the same, -0.211 ± 0.085
- E9Y — within error, -0.286 ± 0.08
- E9V — within error, -0.246 ± 0.075
- E9G — within error, -0.234 ± 0.081
- E9R — within error, -0.277 ± 0.077
- E9N — within error, -0.218 ± 0.1
- E9F — lower, -0.495 ± 0.077
- E9I — within error, -0.241 ± 0.078
- R3L — higher, 0.186 ± 0.095
- R3N — higher, 0.173 ± 0.17
- R3I — higher, 0.19 ± 0.14
- R3F — higher, 0.037 ± 0.15
- R3E — higher, 0.366 ± 0.1
- R3G — higher, 0.228 ± 0.076
- R3C — higher, 0.216 ± 0.11
- R3A — higher, 0.493 ± 0.083
- R3T — higher, 0.435 ± 0.12
- R3S — higher, 0.43 ± 0.094
- R3Y — within error, 0.006 ± 0.17
- R3P — within error, -0.081 ± 0.15
- R3W — higher, 0.241 ± 0.1
- R3H — higher, 0.199 ± 0.15
- R3M — higher, 0.317 ± 0.12
- R3D — higher, 0.543 ± 0.11
- R3K — higher, 0.209 ± 0.11
- R3Q — higher, 0.353 ± 0.13
- R1L — higher, 0.561 ± 0.31
- R1S — higher, 0.131 ± 0.15
- R1Y — within error, 0.054 ± 0.32
- R1C — higher, 0.239 ± 0.16
- R1M — higher, 0.23 ± 0.35
- R1N — higher, 0.354 ± 0.26
- R1K — within error, 0.027 ± 0.2
- R1V — higher, 0.297 ± 0.19
- R1G — higher, 0.258 ± 0.11
- R1A — higher, 0.267 ± 0.21
- R1I — within error, -0.063 ± 0.41

— the Human Domainome abundance scans (Beltran et al. 2025)
